Results: the domain aggregation screens of Martell et al. (2025)

Test: soluble fraction after stress (log2 fold change); higher = more stays soluble; pooled small domains, quantitative proteomics
Conditions: stress: pH 4
Outline: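 Custom libraries of small protein domains were pooled and exposed to pH 4. High-throughput quantitative proteomics then measured the log2 fold change in the amount of each domain still soluble, with higher values meaning more stayed soluble. This soluble-fraction fold change stands for aggregation propensity.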

HMYYTAPDGRKREILDAALRLIAAGGPDSLTYRRVADEAGVPLGSLTYYFEAREDLIREAFRLYIAEASR
soluble fraction (log2): -1.6

HMATYDIDALKVDLPSAKELAQFVYDKTDGLVSLDLIGKPKEEQYIVAKNALEGKKVPAEYLTGFNPY
soluble fraction (log2): -0.273

HMGPEVQLAYSEFLAKVKVGEVNDVMVKGNEIHGHFSDGRTFSTYSPNDPDLVEKLNKNKVMIKAAPP
soluble fraction (log2): -0.0878

HMQENVIIYPNPTKSVIYLSEKVEFILYNILGEIIFIGDNNKIDLNSFDNGVYIFESGNVRTQIIK
soluble fraction (log2): 0.204

HMSSFFLIDVSQVRIGMYIQLDVGWMRHPFPVNSFRITNQEQLDTLRSLNLAQVRWSPAKSDL
soluble fraction (log2): -1

HMSVEVPNLIGKTLDQVDIDLKSLDLSFVILDSARYNSSFKPLSVIDHQPISGAKVKVNRKIYLTINPS
soluble fraction (log2): -0.358

HMLDIVVGSTGYALGEITDHSGTVRVNGDTWTARLVDAAGPVEDGDRVEVYAVEGTTLLVYPS
soluble fraction (log2): 0.128

HMQKAEQIGSLLREKRKSMGLTQDELAQQVEVRRQTLADLELGKNVGSHLLIKVMEHLGVGFDLL
soluble fraction (log2): -0.962

HMAPEQWYVLTSGQLPKGPYRLRHIVAMSKGDNWLVARKGAEQWTPLRHLPEFRQAQEANEYIQAIS
soluble fraction (log2): -0.122

HMLSYIELTVDNTSKASYIMTDKMKINNFKIIGNNTIRVYENKVSPQDISRTLSMNNVSIEALGRKS
soluble fraction (log2): -0.253

HMDTIYMVVAKNIKYYRLIKSMSKKDLAEAVNVTPMAISNYENGKRKPEIDILKKIANVLGVRVVDFLTVR
soluble fraction (log2): -0.194

HMITFRINQQSQVGLRLDKFIVQQMPDYSRTRIQSWIKTKNILVNGEGKKSGYALEFDDLVEVTIPE
soluble fraction (log2): 0.0398

HMGAWQQTGFFRNRENAESLAEVLRQRGFSPVVREDTRPSGTVYYAVLVPDDGTTAARLKDAGIDSYPV
soluble fraction (log2): 0.367

HMAPVLTATVNTTSGKLNMRAAASATSAKLTSIPRGATVTVLEKGTTWSRISYGGYTGYVMTQYLKFD
soluble fraction (log2): -0.575

HMEQMSPYPNPSKGKIQFHNQEPMDIKVFNSLGQIVFEQRILSRAILDLSRLSPGQYIVQAGEQKNIWIK
soluble fraction (log2): -0.293

HMGGLALAEREVVEWLSQRNLLPSPDVVARAAAHPDGLGWLERSLAVLEGPRLFLGLGDLVPEP
soluble fraction (log2): -1.02

HMEEVRFPLKKEILLWALKEAQVDEDEVFRKFTNLEKWINGEKHPTFKQIESLANYLKIPFGYMFLEKPPI
soluble fraction (log2): -1.47

HMHSRTWTSADGVKTFEGELQSYDAASGKVSVILPNHKRITFKQEKLSADDIAWLEKNGNRP
soluble fraction (log2): 0.218

HMFIRINQTQNSPRKSVQIVESKRDGHKVRTKILRHVGIAMDDVELQKLKSLAQDIIAKMTVETENASKQ
soluble fraction (log2): 0.176

HMNYEFLEKIGFSSNEAKVYGTLIKHKVLNGYEIAKLSGVARSLVYEVINRLVAKGAVIRIDGEPNFYKP
soluble fraction (log2): -0.236

HMIYRTTSVPIDNISTQKFNLQEGWIEMNKNEVEDFIRQKNLELVVTDSNVMLDKFALNGDPNKFKVFKY
soluble fraction (log2): 0.104

HMTFPTEAKLTGDKVFVRSGPSTQSQRLTNLAINSVVTVLAREMGDMQYPWYKVRYSDGEGWVYGQYVEAI
soluble fraction (log2): 0.122

HMGTVIGMGRITAGGVNFRETEGGGVIEKLERDTLVEVLTVPSVIDTTHWYQVRYNNRTGYVQAPFVQLLG
soluble fraction (log2): 0.176

HMFDGYQWLKRDIIRGVYQPEEKLRMSLLTNRYGLGVGPLREALSQLVAEHLVTVVSQKGYRVAPM
soluble fraction (log2): -0.0817

HMNVESMVGKQGKVVVEIDNISAKGMIKVDGMEWTARSVDGEIIPKDSLVAVVSVEGVKAMVRKAE
soluble fraction (log2): 0.15

HMKLELSNDFYNKIRLARKENGLTQEDLAEKLNMKVGVIQKIENGVRQTDSNLMKISKFLGVEIYVE
soluble fraction (log2): -0.303

HMNDEQFAIAKNDLLLSLYDGKEVNNSAAEYIIAWESLEKSPSDYISSQLKNTAESIIKISFD
soluble fraction (log2): 0.0518

HMKEVDSESAFAERGISEVWIPALQKMGILTLEALDAANPNKVFNDLGGMRKKLKIDAAMPTKDEVTAWIQ
soluble fraction (log2): -0.053

HMIPSEQYNTALTEIGLSTRAHNSLRRAGIMTLGQLIEKTRDGLPPLPGFGDKSQVEVQDLLTGLGYPI
soluble fraction (log2): -1.03

HMGTLNLSQAYREWGMAEIEANRDYYGPVRFDDIAFQMSPAGQQLQARFVASYADRLHDAIEGEL
soluble fraction (log2): -1.68

HMRTIVSELNDIKGISDASAKKLLIRYGSFEAVREAVMKHEEEFELDMGKRITGALTRYFYEE
soluble fraction (log2): 0.223

HMNTISEADAKRIALERAGLTAADYVKVDYDQDDNEYEVEMRSGNTEYEVKISGSTGAVLEYDSETD
soluble fraction (log2): -0.0384

HMSELDSYIGARLRMRRLMLGMSQEALGEKLSLTFQQIQKYEKGTNRVSASRLYELAQVLDVPVQFFFDGA
soluble fraction (log2): -1.39

HMSRQREWIYDYIQSHPDRHMSVEEIYEGLKAENREVSVATVYRNLKILQDENRIASLMLESGKQVFDK
soluble fraction (log2): -0.0969

HMKTKKYKGVYKDSKGKIYFQIELGVDPITGKRIQKKGRKNQQGLPFNSFKEAYEEILRLKHEFVNSTIN
soluble fraction (log2): 0.00285

HMNDLKVGELAKRGNVTAETVRHYTREGLLSPTRHPDNGYQLFSATDLERLHFIQRARKLGFSVAEIRDIL
soluble fraction (log2): -0.278

HMEEVVIPDLAGLTEEEATKVLMAKELKLKVSGSQHSDIEKGLIISQDPPAGEKGAKNSQVAVVTSSG
soluble fraction (log2): -0.000599

HMPAYYQKEAVLDGRASVFAYERDPSSWYFKQLIPGTKKYRTKKIQGATTLEQAKSQALDIALGLRDEP
soluble fraction (log2): 0.243

HMGIDAIDNFVSKIIMKIEGLGESEVPTSTIGKFIMEGLQYLDTVAYVRYASVYKNFKEAKDFEQFVGSL
soluble fraction (log2): -0.566

HMRAKPLILLDGREISAEELFSLDKNSIKSIEVLKDETALAQYGEKAKNGVVLVVTKSAAAS
soluble fraction (log2): 0.0982

HMGGLIEPLSARELEVLELMSLGKTNQEIARDLVVASGTIKAHAASIYRKLDAANRTEAVTHARELGIL
soluble fraction (log2): -0.814

HMTASTLSYSKFNEQVVQNQVRKVTFQGEQVKGELISGQTFTTTVPANDTTLWPMLKAHNVDTAVTAA
soluble fraction (log2): 0.0376

HMYFGDADGNKKVDAADALYLKRHLADWEDYRELPQKTNVSWMDEASPANLMILERHIAGWKDYEMLPYT
soluble fraction (log2): -0.19

HMDTVSYMSDAVKAGAVTPSHDEEARARYLLYAGFGAILLFLRYEASEPGDIESAIREFMERYGPVTAELY
soluble fraction (log2): 0.00707

HMGEPVEIEEPITVRSLSEALGLKSSAIISHLMRQGVFATINQNLDKETAELIAAEYGIELRIK
soluble fraction (log2): -0.0783

HMTNYREILRLRSLGLNHSRIAESMGISRPTVIAALQRAQTQELNWQAAESLSDIDLAQRLNP
soluble fraction (log2): -0.2

HMLTEKEEEVMQILWDNGPLFVREILEFYPDPKPHYNTVSTVIRVLEEKNFASHKAYGNTYQYFP
soluble fraction (log2): 0.18

HMSGEITVPNLIGVEAIQAKTLLIQAGFLIKEFYDLDSTQPAGVVIRQAPEAGTTQTIGKSVTITINKQ
soluble fraction (log2): 0.106

HMQSYSTIIGVIELRLSGIGYRTTKARYGIGNSTVTLIMNRFKETGFTLDDLKTMEPTKVEALFYPP
soluble fraction (log2): -0.229

HMQDRDKNIEEGRQLVLHEMDRLDLVDEPLHDVARQLNMKAVEDMFAAVGAGDLRLGQIIHQLLKQADTN
soluble fraction (log2): -1.11

HMLQVSDENFVVELVQKVLLDNPSSVQEYKNGKESVLQFLIGQAMKASKGTANPQIVKEIMLKLL
soluble fraction (log2): -0.443

HMVSKSDVQRALEKVEPVLRKLGGSTVEKVRVMARQATLVFEMLKSWWKGEIDLPWKTVAAMTVTLLYL
soluble fraction (log2): -0.322

HMQISDESQLREVVSKILEENEQSVIDYKNGKTRAMGFIIGQVMKATRGKANPQLVNEIVKEMLDE
soluble fraction (log2): -0.137

HMSTMTGTVDTPGASLNVRTGAWGPIVGQLAHGSKVTIIGSSGDWFKISYNGATRYVHKNYVNTT
soluble fraction (log2): -0.0624

HMLKDININVTGLDQISNAKLINNLNLLKMNNLFFLDEKKIKKILNSNNLIEKFFIFKKYPSTLDIKVYKT
soluble fraction (log2): 0.22

HMQQVDWGSVFGDFGTMFKDQLQPTIDRLRRMAQSDTFRQSSLEEQQILYSLIEKLERSGTA
soluble fraction (log2): -2.1

HMEVHLMPGTVLLREYESNEYRVTVTPEGFYDLNGKVFKSLSAVARHITGVNWSGPRFFGVEP
soluble fraction (log2): -0.604

HMGTGQTNEKLAVLTNIQKTQEQILLTLGAKNPLVNLKQYRETLAKILSLSGYKNSNEFFLDPM
soluble fraction (log2): -0.25

HMDKEVLYVTVNDKKVKLDGKNHIFIDIFNYIDFDIKKPNGSIVLKLNGKNAGYMDEIKDGDKIEIYWDK
soluble fraction (log2): -0.277

HMDTEVVMINVVGMNIDKAKNSLNHKNILYKISYQDVSEGENNVVLKQSISSNTKIKKGQVVSLVVGKLN
soluble fraction (log2): -0.0691

HMIRTGEVVTGKVINVKEDQIILNIGFKSDGIITRNEYTNDNSLDLRTVVHEGDEIEAKVLKVNDGEGQVV
soluble fraction (log2): 0.12

HMKINYNEFLRRFLGEKEGDIIEMETGKRIGTHKGYWFHTIGQRKGLGLGGGPWFVIRKDIDENIIYVSHG
soluble fraction (log2): -0.643

HMSRSSQMVNFIRLLSQEKKVSVNSIFSSSVQLSDGIIVKINDFYYRVNLSLDQKTYSLVEVS
soluble fraction (log2): 0.12

HMQKPWFYESSGQRKGGFSEQEMVGLITDGEITHGAIVWRNGLSDWTKLEQTELAAHLDKTA
soluble fraction (log2): -1.06

HMAKDSQSADVLQAIFDGSKVLNGLALDQDMRWDLINGLVMSGRLGVEAIEAEAAKLAKLVEELEFR
soluble fraction (log2): -1.21

HMSFTDLILKSANAIDEMGGIWENGKQILGEKAIAIHEEIVDNGLNPDKDGFYKLANGQMIQYG
soluble fraction (log2): -0.85

HMFNFPEEVRVQLAKSEQLRNLLIPMSETVRDALSGEELWFGRTIFNTTSKKIESWTNPGVWVE
soluble fraction (log2): -1.28

HMAPTADSVPFVIRSVVGGAQPFIVLEDGSKLLVGGVYRKYRLVAVENTRIIFEGPRTAIVT
soluble fraction (log2): -0.681

HMADNKDMQAAFMEALNGLKEYAKVNGNIVTKEDVNSYFKDMHLDDNKYSMITGYLMANGITIKG
soluble fraction (log2): -0.432

HMSQYELEDVEKQRLKFKNGDEKALWLLSDIYKDNSQSYEVRLAALRALSESRHPLIIFDIQSSVK
soluble fraction (log2): -0.898

HMASLSEREHDVAVLILQGKTYAEIGQAIFISPRTVEHHVASIRRRLEAKSRSDLIAKLRLTIGGTED
soluble fraction (log2): -1.15

HMGTTTGKVNATGVNFRTGPSTSYSSMGKLGIDTAVTILGKSGDWYQVKVNSTGKTGYVFAKYITITSVV
soluble fraction (log2): -0.434

HMNQYALTDREKNVLGLLVDGLSYKMIADKENISFHTVNAHVRKIYEKLHVHSLAEAVSKALKENL
soluble fraction (log2): 0.056

HMIGILSDREAEILALLDEGLTNKAIGRRLNLAEPTVKFHLKNLYAKLGVGRRQLAVNVAKGSGLLNSD
soluble fraction (log2): -0.167

HMGFLTGNTQGEVNRKTKNQMVNIFLPTTPNPTSGFLLFVPKKDILRLTMTVEEGIKMIISAGMLTPS
soluble fraction (log2): 0.0322

HMRSFGRLRRRDSGRWEAAYVGPDARLYRAPATFEAKDDAIAWLSAERRMIELDTWIKPHDRASR
soluble fraction (log2): -0.000443
